Results on 2 substances are retold here after patent publication US20030119772A1.

This experiment deals with ZEB expressed in NIH 3T3 cells in the p21 promoter luciferase reporter assay. Kind of experiment: cell-based or functional assay.

The substance “53BP1 co-expressed in NIH 3T3 cells in the p21 promoter luciferase reporter assay” gave a p21-promoter-driven luciferase reporter in NIH 3T3 cells, relative light units of 2 fold.

CtBP1 displayed a p21-promoter-driven luciferase reporter (p53-mediated transactivation) in NIH 3T3 cells of 4 fold.
